Patent US20230398116A1, “Agent for reversing resistance to anticancer drugs” (Y'S AC CO., LTD., priority 2020, published 2023)
Substitutions are numbered along the chain they refer to.

Experiments:
[1] = test system: E0771 cells; test: MTT assay / cell proliferation (confluence) assay, E0771; format: cell-based, mouse; conditions: E0771, erlotinib 30 μM or 50 μM, 48 hours, MTT, FIG. 10
Procedure: (§1) Human and mouse breast cancer cells (1×10^4) were cultured in 10% FCS containing RPMI1640 medium on a 96-well flat bottom plate (Corning, Tewksbury, MA) at 37° C. for 24 hours, and then stimulated with IL-26 for 48 hours in the presence or absence of EGFR-TKI (gefitinib or erlotinib) at various concentrations, a signal inhibitor, and a neutralizing antibody. HUVECs were seeded in a 96-well flat bottom plate at 5×10^3 cells/well in a 2% FBS-containing EGM medium in which growth factors were reduced by half, and cultured at 37° C. for 12 hours. Thereafter, the medium was aspirated, and a recombinant human IL-26 dimer was adjusted to a final concentration of 10 ng/mL in a 2% FBS-containing EGM medium containing no growth factors, and added to the cells. The stimulation was started in the presence or absence of control human IgG and anti-human IL-26 antibodies, and the cells were cultured for 48 hours. Thereafter, a concentration of 20 μl or 1/10 of a 5 mg/ml MTT solution (Tetrazolium monosodium salt, WST-8) was added to each well, and the plate was allowed to stand for 1 hour. The absorbance at 450 nm/595 nm was measured using Microplate Reader (Bio-Rad, Hercules, CA) and data was analyzed with Microplate Manager 6 software (Bio-Rad).
(§2) Human and mouse breast cancer cells (1×10^4) were cultured in RPMI1640 medium containing 10% FCS for 24 hours at 37° C. on a 96-well flat bottom plate (Corning), and then stimulated with IL-26 (30 ng/ml) in the presence or absence of various concentrations of gefitinib and a neutralizing antibody. Cell proliferation was measured as cell confluence using IncuCyte ZOOM (Essen Bioscience, Ann Arbor, MI).

[2] = test system: MDA-MB468 cells; test: MTT assay / cell proliferation (confluence) assay, MDA-MB468; format: cell-based, human; conditions: MDA-MB-468, erlotinib 30 μM or 50 μM, 48 hours, MTT, FIG. 10
Procedure: as §1, §2

[3] = test system: HCC70 cells; test: MTT assay / cell proliferation (confluence) assay, HCC70; format: cell-based, human; conditions: HCC70, erlotinib 30 μM or 50 μM, 48 hours, MTT, FIG. 10
Procedure: as §1, §2

[4] = molecular target: T1, EphA3/IL-26 interaction (Homo sapiens, UniProt Q9NPH9); test: Immunofluorescence of rhIL-26-Alexa 488 and cell surface EphA3 on E0771 cells; format: cell-based, mouse; conditions: E0771, antibodies 10 μg/ml, FIGS. 19 and 20
T1 construct: purchased R&D Systems; host or cells: IL-26 was purchased; EphA3 is endogenous on E0771 cells
T1 sequence (Q9NPH9 22-171): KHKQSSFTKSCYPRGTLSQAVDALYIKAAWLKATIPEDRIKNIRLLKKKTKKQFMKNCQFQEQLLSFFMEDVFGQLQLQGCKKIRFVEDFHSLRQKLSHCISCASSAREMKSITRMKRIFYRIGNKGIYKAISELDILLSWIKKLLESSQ
Procedure: E0771 and HCC70 cells (1×10^5) were cultured for 24 hours in RPMI1640 medium with 10% FCS on Lab-Tek chamber slides (Thermo Fisher Scientific). The cultured cells were stimulated with Alexa Fluor 488 labeled IL-26 (30 ng/ml) in the presence or absence of recombinant human and mouse EphA3-Ig for 1 hour. HCC70 cells were stimulated with IL-26 (30 ng/ml) in the presence or absence of gefitinib (40 μM), a signal inhibitor, and a neutralizing antibody for 24 hours. Subcutaneous tumor samples obtained from mice were fixed in 4% paraformaldehyde (Thermo Fisher Scientific) and embedded in OCT compound (Tissue-Tek (registered trademark), Sakura Finetek, Japan). Cells and slides were immunostained with each antibody and observed using a Zeiss inverted microscope and Axiovision 2.0 program (Carl Zeiss, Germany). The fluorescence intensity was quantified with Image-J software (NIH). The images were captured using a 100×400× objective.

[5] = molecular target: T2, recombinant human IL-26/AK155 monomer, Cat #1375-IL/CF, R&D Systems (human, UniProt Q9NPH9 22-171); test: ELISA, human IL-26 monomer coated at 0.5 µg/ml, antibody diluted 2-fold from 5 µg/ml, HRP anti-human kappa detection
T2 construct: also called recombinant human IL-26 monomer
T2 sequence (looked up): T1 sequence (Q9NPH9 22-171)
Procedure: (§3) The antigen binding of purified Ch69-10-IgG1, Hu69-10A-IgG1, and Hu69-10B-IgG1 was analyzed by ELISA. ELISA plates were coated overnight at 4° C. with the addition of 0.5 μg/ml human IL-26 (recombinant human IL-26/AK155 monomer, Cat #1375-IL/CF, R&D Systems, Minneapolis, MN) at 100 μl/well in 0.2 M sodium carbonate buffer (pH 9.4). Wells were washed with the wash buffer and blocked with the ELISA buffer. Subsequently, 100 μl/well of test antibody (mouse 69-10, Ch69-10-IgG1, Hu69-10A-IgG1, or Hu69-10B-IgG1) serially diluted 2-fold in RPMI medium starting at 5 μg/ml was added to measure a binding with IL-26. After incubation at room temperature for 1 hour and washing the plates with a wash buffer, a 1/2,000-diluted HRP-conjugated goat anti-human kappa chain polyclonal antibody (Bethyl Laboratories) (for Ch69-10-IgG1, Hu69-10A-IgG1 and Hu69-10B-IgG1) or a 1/2,000-diluted HRP-labeled goat anti-mouse kappa chain polyclonal antibody (Bethyl Laboratories) (for mouse 69-10) in ELISA buffer was added at 100 μl/well to detect bound antibodies. After incubation at room temperature for 30 min and washing with the wash buffer, 100 μl/well of ABTS substrate (Sigma Aldrich) was added to start color development and 100 μl/well of 2% oxalic acid was added to stop the color development. The absorbance was measured at 405 nm.

[6] = molecular target: T3, IL-26 (Homo sapiens, UniProt Q9NPH9); test: ELISA of antigen binding to human IL-26; parameters: purchased R&D Systems 1375-IL/CF; conditions: plates coated with 0.5 μg/ml human IL-26 monomer; calculated using GraphPadPrism
T3 sequence (Q9NPH9 22-171): T1 sequence (Q9NPH9 22-171)
Procedure: as §3

[7] = test system: phosphorylation of AKT, JNK and EphA3 in HCC70 cells; test: Western blotting of phosphorylation in HCC70 cells; format: cell-based, human; conditions: gefitinib 40 μM
Procedure: To analyze the phosphorylation of AKT, ERK, p38, JNK, STAT3, and EphA3, E0771 cells and HCC70 cells in 100 mm dishes were stimulated with IL-26 ([…]) and an anti-EphA3 polyclonal antibody (pAb) (10 μg/ml) for a specified period of time. After stimulation, the cells were lysed with a 2% protease inhibitor mixture (Sigma-Aldrich) and/or RIPA buffer added with 1×PhosSTOP (Roche Diagnostics, Tokyo, Japan), and a lysate was separated in a reduced state by SDS-PAGE (15 μg/lane). Immunoblots were performed using an anti-phosphorylated AKT antibody, an anti-phosphorylated ERK antibody, an anti-phosphorylated p38 antibody, an anti-phosphorylated JNK antibody, an anti-phosphorylated STAT3 antibody, and an anti-phosphorylated EphA3 antibody that recognize both human and mouse antigens. For reprobing, the membrane was immersed in a stripping buffer. After the stripping procedure, the membranes were re-probed with anti-pan-AKT, anti-pan-ERK, anti-pan-p38, anti-pan-JNK, anti-pan-STAT3, and anti-pan-EphA3 antibodies recognizing both human and mouse antigens. Images were taken using a C-Digit Blot scanner (MS Techno Systems, Inc., Japan).

[8] = HCC70, Ephrin A5 200 ng/ml, FIG. 26 left

Molecule: C#Cc1cccc(Nc2ncnc3cc(OCCOC)c(OCCOC)cc23)c1 [erlotinib, Erlotinib, reference compound]
- cell proliferation under erlotinib [1]: inhibitory effect of erlotinib on cell proliferation
- cell proliferation under erlotinib [2]: inhibitory effect of erlotinib on cell proliferation
- cell proliferation under erlotinib [3]: inhibitory effect of erlotinib on cell proliferation

B1: mouse soluble EphA3: recombinant mouse EphA3 Fc chimeric protein purchased from R&D Systems (protein)
chain: ELSPQPSNEVNLLDSKTIQGELGWISYPSHGWEEISGVDEHYTPIRTYQVCNVMDHSQNNWLRTNWVPRNSAQKIYVELKFTLRDCNSIPLVLGTCKETFNLYYMESDDHGVKFREHQFTKIDTIAADESFTQMDLGDRILKLNTEIREVGPVNKKGFYLAFQDVGACVALVSVRVYFKKCPFTVKNLAMFPDTVPMDSQSLVEVRGSCVNNSKEEDPPRMYCSTEGEWLVPIGKCTCNAGYEERGFICQACRPGFYKASDGAAKCAKCPPHSSTQEDGSMNCRCENNYFRAEKDPPSMACARPPSAPRNVISNINETSVILDWSWPLDTGGRKDITFNIICKKCGWNVRQCEPCSPNVRFLPRQLGLTNTTVTVTDLLAHTNYTFEIDAVNGVSELSSPPRQYAAVSITTNQAAPSPVMTIKKDRTSRNSISLSWQEPEHPNGIILDYEVKYYQKQEQETSYTILRARGTNVTISSLKPDTTYVFQIRARTAAGYGTNSRKFEFETSPDSFSISGENSH
modifications: left off: a dimerising Fc or GST
notes: recombinant mouse EphA3 Fc chimeric protein purchased from R&D Systems
- inhibition of colocalization of IL-26 with EphA3 (EphA3/IL-26 interaction) [4]: inhibited EphA3/IL-26 interaction

B2: chimeric 69-10 IgG1/kappa antibody (Ch69-10-IgG1) (antibody, V domains shown)
VH: QVTLKESGPGILKPSQTLSLTCSFSGFSLSTSGMGVGWIRQPSGKGLEWLAHIWWDDDKYYNPSLKSQLTISKDTSRNQVFLKITSVDTADTATYYCVRGGITATHYYAMDYWGQGTSVTVSS
VL: DIQMTQSPASQSASLGESVTISCLASQTIGTWLSWYQQKPGKSPQLLIYAATSLADGVPSRFSGSGSGTKFSFKISSLQAEDFVSYYCQQLYSSPWTFGGGTKLEIK
notes: also called clone 1H8
- EC50 [5]: 0.299 µg/mL

B3: Ch69-10-IgG1: chimeric 69-10 IgG1/kappa antibody with mouse 69-10 VH and VL and human constant regions (antibody, V domains shown)
VH: B2 VH
VL: B2 VL
- EC50 values (binding to human IL-26, ELISA) [6]: 0.299 µg/mL

B4: Hu69-10A-IgG1/kappa antibody (Hu69-10A-IgG1) (antibody, V domains shown)
VH: QVTLKESGPALVKPTQTLTLTCTFSGFSLSTSGMGVGWIRQPPGKALEWLAHIWWDDDKYYNPSLKSQLTISKDTSKNQVVLTMTNMDPVDTATYYCVRGGITATHYYAMDYWGQGTTVTVSS
VL: DIQMTQSPSSLSASVGDRVTITCLASQTIGTWLSWYQQKPGKAPKLLIYAATSLADGVPSRFSGSGSGTKFTFTISSLQPEDIATYYCQQLYSSPWTFGGGTKVEIK
notes: also called h69-10A; humanized anti-IL-26 antibody Hu69-10A
- EC50 [5]: 0.304 µg/mL

B5: Hu69-10B IgG1/kappa antibody (Hu69-10B-IgG1) (antibody, V domains shown)
VH: B4 VH
VL: B4 VL with K70D
notes: also called h69-10B; humanized anti-IL-26 antibody Hu69-10B
- EC50 [5]: 0.396 µg/mL

B6: Ephrin A5: known ligand of EphA3 (protein, UniProt P52803 21-203, looked up)
Ephrin-A5: QDPGSKAVADRYAVYWNSSNPRFQRGDYHIDVCINDYLDVFCPHYEDSVPEDKTERYVLYMVNFDGYSACDHTSKGFKRWECNRPHSPNGPLKFSEKFQLFTPFSLGFEFRPGREYFYISSAIPDNGRRSCLKLKVFVRPTNSCMKTIGVHDRVFDVNDKVENSLEPADDTVHESAEPSRGEN
- phosphorylation of AKT [7, 8]: slightly enhanced
- phosphorylation of JNK and EphA3 [7, 8]: little effect
- dephosphorylation of EphA3, activation of AKT and JNK phosphorylation ([7]; HCC70, IL-26 30 ng/ml or Ephrin A5 200 ng/ml, FIG. 26): such changes were not observed
